Consider five sequences from the supplement of paper PMC5998384.

Data set [1] has as its system HeLa Kyoto. The data set can be described thus: thermal stability score vs G1/S (z-score of summed log2 fold changes over temperatures); higher = more thermally stable than in G1/S.
In data set [2] the test system is HeLa Kyoto. The data set can be described thus: solubility in G1/S (NP-40 vs SDS abundance) (log2 ratio); higher = more soluble. The conditions noted are these: cell cycle stage: G1/S.
Data set [3] has as its system HeLa Kyoto. The data set can be described thus: solubility change mitosis vs G1/S (difference of NP-40 vs SDS log2 ratios) (log2 ratio difference); higher = more soluble in mitosis.
The test system of data set [4] is HeLa Kyoto. The data set can be described thus: melting temperature (median over replicates), in situ; higher = more thermally stable.
[5] abbreviates: cell cycle stage: early G1 (4.5 h after nocodazole release).
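Wherever melting temperature (median over replicates), in situ is given: HeLa Kyoto cells synchronized by double thymidine or nocodazole block, proteins quantified by TMT10plex mass spectrometry, three independent biological replicates.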
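Wherever solubility change mitosis vs G1/S (difference of NP-40 vs SDS log2 ratios) is given: synchronized HeLa Kyoto cells (double thymidine block for G1/S, nocodazole release for mitosis), protein amounts in NP-40 versus SDS lysates quantified by mass spectrometry, three biological replicates.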
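Wherever solubility in G1/S (NP-40 vs SDS abundance) is given: HeLa Kyoto cells arrested at G1/S by double thymidine block, proteins quantified by TMT10plex mass spectrometry in mild NP-40 versus SDS extracts, three biological replicates.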
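Wherever thermal stability score vs G1/S (z-score of summed log2 fold changes over temperatures) is given: synchronized HeLa Kyoto cells, proteins quantified by TMT10plex mass spectrometry, three biological replicates, mitosis taken 0.5 h after nocodazole release, G1/S directly after double thymidine block.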

With “MSELEQLRQEAEQLRNQIRDARKACGDSTLTQITAGLDPVGRIQMRTRRTLRGHLAKIYAMHWGTDSRLLVSASQDGKLIIWDSYTTNKVHAIPLRSSWVMTCAYAPSGNFVACGGLDNICSIYSLKTREGNVRVSRELPGHTGYLSCCRFLDDNQIITSSGDTTCALWDIETGQQTVGFAGHSGDVMSLSLAPDGRTFVSGACDASIKLWDVRDSMCRQTFIGHESDINAVAFFPNGYAFTTGSDDATCRLFDLRADQELLMYSHDNIICGITSVAFSRSGRLLLAGYDDFNCNIWDAMKGDRAGVLAGHDNRVSCLGVTDDGMAVATGSWDSFLKIWN [GNB2]”, the thermal stability score is -0.768 in data set [1] (setting [5]) and -0.878 in data set [1] (cell cycle stage: mitosis). Further, the “solubility in G1/S (log2)” value in data set [2] is -0.771. Also, the “solubility change mitosis (log2)” value in data set [3] is -0.136. The melting temperature in data set [4] (cell cycle stage: G1/S) worked out at 55.6 °C; in data set [4] (cell cycle stage: mitosis), 55.5 °C.

For “MSEPIRVLVTGAAGQIAYSLLYSIGNGSVFGKDQPIILVLLDITPMMGVLDGVLMELQDCALPLLKDVIATDKEDVAFKDLDVAILVGSMPRREGMERKDLLKANVKIFKSQGAALDKYAKKSVKVIVVGNPANTNCLTASKSAPSIPKENFSCLTRLDHNRAKAQIALKLGVTANDVKNVIIWGNHSSTQYPDVNHAKVKLQGKEVGVYEALKDDSWLKGEFVTTVQQRGAAVIKARKLSSAMSAAKAICDHVRDIWFGTPEGEFVSMGVISDGNSYGVPDDLLYSFPVVIKNKTWKFVEGLPINDFSREKMDLTAKELTEEKESAFEFLSSA [MDH1]”, the thermal stability score in data set [1] (setting [5]) is -0.848; in data set [1] (cell cycle stage: mitosis), 0.036. The “solubility in G1/S (log2)” value in data set [2] was 0.43. Moreover, the “solubility change mitosis (log2)” value in data set [3] was -0.111. In addition, the melting temperature in data set [4] (cell cycle stage: G1/S) turned out to be 57.2 °C; in data set [4] (cell cycle stage: mitosis), 56.8 °C.

As to “MSEQSICQARASVMVYDDTSKKWVPIKPGQQGFSRINIYHNTASNTFRVVGVKLQDQQVVINYSIVKGLKYNQATPTFHQWRDARQVYGLNFASKEEATTFSNAMLFALNIMNSQEGGPSSQRQVQNGPSPDEMDIQRRQVMEQHQQQRQESLERRTSATGPILPPGHPSSAASAPVSCSGPPPPPPPPVPPPPTGATPPPPPPLPAGGAQGSSHDESSMSGLAAAIAGAKLRRVQRPEDASGGSSPSGTSKSDANRASSGGGGGGLMEEMNKLLAKRRKAASQSDKPAEKKEDESQMEDPSTSPSPGTRAASQPPNSSEAGRKPWERSNSVEKPVSSILSRTPSVAKSPEAKSPLQSQPHSRMKPAGSVNDMALDAFDLDRMKQEILEEVVRELHKVKEEIIDAIRQELSGISTT [EVL]”, the thermal stability score in data set [1] (setting [5]) is -0.133; in data set [1] (cell cycle stage: mitosis), -0.273. For the same sequence, the “solubility in G1/S (log2)” value in data set [2] was found to be 0.231. Besides, the “solubility change mitosis (log2)” value in data set [3] was -0.143. Moreover, in data set [4] (cell cycle stage: G1/S), the melting temperature came out at 50 °C.

In the case of “MSESGHSQPGLYGIERRRRWKEPGSGGPQNLSGPGGRERDYIAPWERERRDASEETSTSVMQKTPIILSKPPAERSKQPPPPTAPAAPPAPAPLEKPIVLMKPREEGKGPVAVTGASTPEGTAPPPPAAPAPPKGEKEGQRPTQPVYQIQNRGMGTAAPAAMDPVVGQAKLLPPERMKHSIKLVDDQMNWCDSAIEYLLDQTDVLVVGVLGLQGTGKSMVMSLLSANTPEEDQRTYVFRAQSAEMKERGGNQTSGIDFFITQERIVFLDTQPILSPSILDHLINNDRKLPPEYNLPHTYVEMQSLQIAAFLFTVCHVVIVVQDWFTDLSLYRFLQTAEMVKPSTPSPSHESSSSSGSDEGTEYYPHLVFLQNKARREDFCPRKLRQMHLMIDQLMAHSHLRYKGTLSMLQCNVFPGLPPDFLDSEVNLFLVPFMDSEAESENPPRAGPGSSPLFSLLPGYRGHPSFQSLVSKLRSQVMSMARPQLSHTILTEKNWFHYAARIWDGVRKSSALAEYSRLLA [SMG9]”, the results for the thermal stability score in data set [1] (setting [5]) and in data set [1] (cell cycle stage: mitosis) were -0.759 and -0.639, respectively. Besides, the “solubility in G1/S (log2)” value in data set [2] was 0.242. Besides, the “solubility change mitosis (log2)” value in data set [3] is -0.178. For the same sequence, the melting temperature in data set [4] (cell cycle stage: G1/S) stood at 49 °C; in data set [4] (cell cycle stage: mitosis), 49.8 °C.

For “MSESLVVCDVAEDLVEKLRKFRFRKETNNAAIIMKIDKDKRLVVLDEELEGISPDELKDELPERQPRFIVYSYKYQHDDGRVSYPLCFIFSSPVGCKPEQQMMYAGSKNKLVQTAELTKVFEIRNTEDLTEEWLREKLGFFH [GMFB]”, the figures for the thermal stability score in data set [1] (setting [5]) and in data set [1] (cell cycle stage: mitosis) were -2.8 and -3.58, respectively. Also, the “solubility in G1/S (log2)” value in data set [2] was 0.3. Moreover, the “solubility change mitosis (log2)” value in data set [3] came out at 0.123. In addition, the figures for the melting temperature in data set [4] (cell cycle stage: G1/S) and in data set [4] (cell cycle stage: mitosis) were 55.4 °C and 55.6 °C, respectively.
